Experimental data published in IntAct's records for PubMed 28712572.

Biological target: gbrap_human GABARAP (UniProt O95166)
Sequence (O95166 whole entry): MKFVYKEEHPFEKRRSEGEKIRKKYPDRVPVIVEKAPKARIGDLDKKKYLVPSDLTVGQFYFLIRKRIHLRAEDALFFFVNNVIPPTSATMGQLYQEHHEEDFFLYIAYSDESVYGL

| effect of a mutation on the interaction | Substance |
| --- | --- |
| with no effect | Pericentriolar material 1 protein (Homo sapiens), Q15154 Q1956G |
| with no effect | Pericentriolar material 1 protein (Homo sapiens), Q15154 Q1956H |
| with no effect | Pericentriolar material 1 protein (Homo sapiens), Q15154 Q1956I |
| with no effect | Pericentriolar material 1 protein (Homo sapiens), Q15154 Q1956K |
| with no effect | Pericentriolar material 1 protein (Homo sapiens), Q15154 Q1956L |
| with no effect | Pericentriolar material 1 protein (Homo sapiens), Q15154 Q1956M |
| with no effect | Pericentriolar material 1 protein (Homo sapiens), Q15154 Q1956N |
| with no effect | Pericentriolar material 1 protein (Homo sapiens), Q15154 Q1956P |
| with no effect | Pericentriolar material 1 protein (Homo sapiens), Q15154 Q1956R |
| with no effect | Pericentriolar material 1 protein (Homo sapiens), Q15154 Q1956S |
| with no effect | Pericentriolar material 1 protein (Homo sapiens), Q15154 Q1956T |
| with no effect | Pericentriolar material 1 protein (Homo sapiens), Q15154 Q1956V |
| with no effect | Pericentriolar material 1 protein (Homo sapiens), Q15154 Q1956W |
| with no effect | Pericentriolar material 1 protein (Homo sapiens), Q15154 Q1956Y |
| with no effect | Pericentriolar material 1 protein (Homo sapiens), Q15154 S1955A |
| with no effect | Pericentriolar material 1 protein (Homo sapiens), Q15154 S1955C |
| with no effect | Pericentriolar material 1 protein (Homo sapiens), Q15154 S1955D |
| with no effect | Pericentriolar material 1 protein (Homo sapiens), Q15154 S1955E |
| with no effect | Pericentriolar material 1 protein (Homo sapiens), Q15154 S1955F |
| with no effect | Pericentriolar material 1 protein (Homo sapiens), Q15154 S1955G |
| with no effect | Pericentriolar material 1 protein (Homo sapiens), Q15154 S1955H |
| with no effect | Pericentriolar material 1 protein (Homo sapiens), Q15154 S1955I |
| with no effect | Pericentriolar material 1 protein (Homo sapiens), Q15154 S1955K |
| with no effect | Pericentriolar material 1 protein (Homo sapiens), Q15154 S1955L |

| effect of a mutation on the interaction | Substance |
| --- | --- |
| with no effect | Pericentriolar material 1 protein (Homo sapiens), Q15154 S1955M |
| with no effect | Pericentriolar material 1 protein (Homo sapiens), Q15154 S1955N |
| with no effect | Pericentriolar material 1 protein (Homo sapiens), Q15154 S1955P |
| with no effect | Pericentriolar material 1 protein (Homo sapiens), Q15154 S1955Q |
| with no effect | Pericentriolar material 1 protein (Homo sapiens), Q15154 S1955R |
| with no effect | Pericentriolar material 1 protein (Homo sapiens), Q15154 S1955T |
| decreasing interaction strength | Pericentriolar material 1 protein (Homo sapiens), Q15154 S1955V |
| with no effect | Pericentriolar material 1 protein (Homo sapiens), Q15154 S1955W |
| with no effect | Pericentriolar material 1 protein (Homo sapiens), Q15154 S1955Y |
| with no effect | Pericentriolar material 1 protein (Homo sapiens), Q15154 S1958A |
| with no effect | Pericentriolar material 1 protein (Homo sapiens), Q15154 S1958C |
| with no effect | Pericentriolar material 1 protein (Homo sapiens), Q15154 S1958D |
| with no effect | Pericentriolar material 1 protein (Homo sapiens), Q15154 S1958E |
| with no effect | Pericentriolar material 1 protein (Homo sapiens), Q15154 S1958F |
| with no effect | Pericentriolar material 1 protein (Homo sapiens), Q15154 S1958G |
| with no effect | Pericentriolar material 1 protein (Homo sapiens), Q15154 S1958H |
| with no effect | Pericentriolar material 1 protein (Homo sapiens), Q15154 S1958I |
| with no effect | Pericentriolar material 1 protein (Homo sapiens), Q15154 S1958K |
| with no effect | Pericentriolar material 1 protein (Homo sapiens), Q15154 S1958L |
| with no effect | Pericentriolar material 1 protein (Homo sapiens), Q15154 S1958M |
| with no effect | Pericentriolar material 1 protein (Homo sapiens), Q15154 S1958N |
| with no effect | Pericentriolar material 1 protein (Homo sapiens), Q15154 S1958P |
| with no effect | Pericentriolar material 1 protein (Homo sapiens), Q15154 S1958Q |
| with no effect | Pericentriolar material 1 protein (Homo sapiens), Q15154 S1958R |

| effect of a mutation on the interaction | Substance |
| --- | --- |
| with no effect | Pericentriolar material 1 protein (Homo sapiens), Q15154 S1958T |
| with no effect | Pericentriolar material 1 protein (Homo sapiens), Q15154 S1958V |
| with no effect | Pericentriolar material 1 protein (Homo sapiens), Q15154 S1958W |
| with no effect | Pericentriolar material 1 protein (Homo sapiens), Q15154 S1958Y |
| with no effect | Pericentriolar material 1 protein (Homo sapiens), Q15154 T1974A |
| with no effect | Pericentriolar material 1 protein (Homo sapiens), Q15154 T1974C |
| with no effect | Pericentriolar material 1 protein (Homo sapiens), Q15154 T1974D |
| with no effect | Pericentriolar material 1 protein (Homo sapiens), Q15154 T1974E |
| with no effect | Pericentriolar material 1 protein (Homo sapiens), Q15154 T1974F |
| with no effect | Pericentriolar material 1 protein (Homo sapiens), Q15154 T1974G |
| with no effect | Pericentriolar material 1 protein (Homo sapiens), Q15154 T1974H |
| with no effect | Pericentriolar material 1 protein (Homo sapiens), Q15154 T1974I |
| with no effect | Pericentriolar material 1 protein (Homo sapiens), Q15154 T1974K |
| with no effect | Pericentriolar material 1 protein (Homo sapiens), Q15154 T1974L |
| with no effect | Pericentriolar material 1 protein (Homo sapiens), Q15154 T1974M |
| with no effect | Pericentriolar material 1 protein (Homo sapiens), Q15154 T1974N |
| with no effect | Pericentriolar material 1 protein (Homo sapiens), Q15154 T1974P |
| with no effect | Pericentriolar material 1 protein (Homo sapiens), Q15154 T1974Q |
| with no effect | Pericentriolar material 1 protein (Homo sapiens), Q15154 T1974R |
| with no effect | Pericentriolar material 1 protein (Homo sapiens), Q15154 T1974S |
| with no effect | Pericentriolar material 1 protein (Homo sapiens), Q15154 T1974V |
| with no effect | Pericentriolar material 1 protein (Homo sapiens), Q15154 T1974W |
| with no effect | Pericentriolar material 1 protein (Homo sapiens), Q15154 T1974Y |
